Source: US20240000938A1 (A2 BIOTHERAPEUTICS, published 2024)

B1: HA-1 Ftcr blocker (TCR, V domains shown)
V domain 1: KNEVEQSPQNLTAQEGEFITINCSYSVGISALHWLQQHPGGGIVSLFMLSSGKKKHGRLIATINIQEKHSSLHITASHPRDSAVYICAVRSVSGAGSYQLTFGKGTKLSVIP
V domain 2: DTGVSQNPRHKITKRGQNVTFRCDPISEHNRLYWYRQTLGQGPEFLTYFQNEAQLEKSRLLSDRFSAERPKGSFSTLEIQRTEQGDSAMYLCASSIDSFNEQFFGPGTRLTVLE

Experiments:
HLA-A*02 on cells = HLA-A*02 on cells (human); test: cell-based or functional assay
[1] = target: HLA-A*02 / HA-1(H) peptide … on T2 cells (human); test: cell-based or functional assay

EC50 right shift of the NY-ESO-1 TCR (HLA-A*02 on cells) [fold]	Emax shifted downward (KRAS TCR) [1] [fold]	Emax shifted downward (NY-ESO-1 TCR) [1] [fold]	additional right shift in activity of the NY-ESO-1 TCR [1] [fold]	block of KRAS TCR activity [1] [fold]	Binder
~30					VLHDDLLEA [HA-1(H) peptide VLHDDLLEA]
	2.7	1.5	~10	~5	B1
